Results from patent US20230374157A1.
pKd: −log10 of the molar value.

Experiments:
[1] = biological target: His-tagged human HER3 extracellular domain (Acro ER3-H5223) (human) (UniProt P21860); assay: BLI, antibody on AHC tips, monomeric HER3 ECD in solution, 1:1 fit
[2] = biological target: human His-tagged HER3 extracellular domain (in-house expressed) (human) (UniProt P21860); assay: BLI sandwich assay, antibody held on immobilized biotinylated EGFR, 500 nM HER3 ECD in solution, 1:1 fit
[3] = biological target: His-tagged human EGFR extracellular domain (expressed and purified in-house) (human) (UniProt P00533); assay: BLI, antibody on AHC tips, monomeric EGFR ECD in solution, 1:1 fit
[4] = biological target: biotinylated human EGFR extracellular domain (Acro EGF-H82E3) (human) (UniProt P00533); assay: BLI avidity format, biotinylated EGFR ECD on SA sensors, antibody in solution, 1:1 fit
[5] = biological target: His-tagged human HER3 extracellular domain (Acro ER3-H5223) (human) (UniProt P21860); assay: BLI, SI-1R12 covalently coupled to AR2G sensors, monomeric HER3 ECD in solution, 1:1 fit

SI-1X4.2, nimotuzumab-based EGFR x HER3 bispecific antibody with MM-111 anti-HER3 scFv, sequence (heavy): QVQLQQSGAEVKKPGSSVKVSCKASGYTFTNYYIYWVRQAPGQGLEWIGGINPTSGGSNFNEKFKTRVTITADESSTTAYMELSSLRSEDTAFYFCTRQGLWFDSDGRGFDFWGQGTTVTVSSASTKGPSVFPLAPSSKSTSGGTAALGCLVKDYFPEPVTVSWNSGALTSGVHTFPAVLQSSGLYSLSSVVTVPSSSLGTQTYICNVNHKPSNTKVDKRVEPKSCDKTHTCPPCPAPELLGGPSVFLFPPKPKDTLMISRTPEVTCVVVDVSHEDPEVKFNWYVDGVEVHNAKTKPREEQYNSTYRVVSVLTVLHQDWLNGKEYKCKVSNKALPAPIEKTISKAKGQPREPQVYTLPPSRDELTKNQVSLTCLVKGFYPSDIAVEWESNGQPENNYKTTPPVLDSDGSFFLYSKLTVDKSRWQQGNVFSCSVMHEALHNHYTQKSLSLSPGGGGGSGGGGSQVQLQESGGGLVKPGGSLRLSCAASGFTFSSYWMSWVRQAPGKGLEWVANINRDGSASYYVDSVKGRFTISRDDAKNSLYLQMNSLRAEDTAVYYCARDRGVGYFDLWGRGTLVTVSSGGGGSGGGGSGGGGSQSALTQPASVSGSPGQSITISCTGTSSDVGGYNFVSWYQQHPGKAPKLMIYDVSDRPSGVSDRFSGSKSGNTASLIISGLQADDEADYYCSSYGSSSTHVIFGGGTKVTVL
SI-1X4.2, nimotuzumab-based EGFR x HER3 bispecific antibody with MM-111 anti-HER3 scFv, sequence (light): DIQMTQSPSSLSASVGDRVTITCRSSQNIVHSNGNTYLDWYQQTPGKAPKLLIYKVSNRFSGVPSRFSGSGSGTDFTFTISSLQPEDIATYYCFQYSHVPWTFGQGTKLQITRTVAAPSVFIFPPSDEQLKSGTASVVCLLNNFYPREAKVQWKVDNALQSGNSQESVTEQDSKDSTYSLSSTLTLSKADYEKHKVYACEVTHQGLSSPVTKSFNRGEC

| pKd [1] | pKd [2] | pKd [3] | koff [1] | kon [1] | koff [2] | kon [2] | pKd [4] | koff [4] | kon [4] | koff [3] | kon [3] | pKd [5] | koff [5] | kon [5] | Substance |
| --- | --- | --- | --- | --- | --- | --- | --- | --- | --- | --- | --- | --- | --- | --- | --- |
| 6.97 | 6.21 | 8.27 |  |  |  |  |  |  |  |  |  |  |  |  | SI-1X6.4, bispecific tetravalent anti-EGFR x HER3 antibody (cetuximab variable regions with mouse framework, MM-111 anti-HER3 scFv) (bispecific antibody) |
| 6.84 | 6.78 | 7.73 | 0.038 s⁻¹ | 260000 M⁻¹ s⁻¹ | 0.0459 s⁻¹ | 279000 M⁻¹ s⁻¹ | 9.40 | 4.25e-05 s⁻¹ | 107000 M⁻¹ s⁻¹ | 0.00202 s⁻¹ | 108000 M⁻¹ s⁻¹ |  |  |  | SI-1X4.2, nimotuzumab-based EGFR x HER3 bispecific antibody with MM-111 anti-HER3 scFv |
|  |  |  |  |  |  |  |  |  |  |  |  | 7.02 | 0.0422 s⁻¹ | 441000 M⁻¹ s⁻¹ | SI-1R12 (MM-111), HER2 x HER3 bispecific human serum albumin fusion (bispecific antibody) |
| 6.88 | 6.11 | 8.56 |  |  |  |  |  |  |  |  |  |  |  |  | SI-1X2, panitumumab-based EGFR x HER3 bispecific antibody with MM-111 anti-HER3 scFv |
